Biological target: B-Myb negative regulatory domain, amino acids 440-600 (NRD^440-600) (human, UniProt P10244-1 440-600)
Experiment: ITC

Sequence of B-Myb negative regulatory domain, amino acids 440-600 (NRD^440-600) (P10244 440-600): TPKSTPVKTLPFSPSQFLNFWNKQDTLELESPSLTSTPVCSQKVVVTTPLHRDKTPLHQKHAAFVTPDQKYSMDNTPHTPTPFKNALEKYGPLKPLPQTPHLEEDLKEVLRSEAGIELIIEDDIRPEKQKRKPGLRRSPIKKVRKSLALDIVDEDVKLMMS

Kd: 4.5 µM
B1: B-Myb DNA binding domain (B-Myb^34-183) (domain or fragment)
chain: not shown

Source: publication doi:10.1101/2022.06.13.495963 (bioRxiv, 2022)
